Data: the nanobody polyreactivity screen of Harvey et al. (2022)

Assay: yeast display, Sf9 membrane polyspecificity reagent, FACS + sequencing; frameworks hold sequencing errors
In short: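 Sorting gates, low and high (top ~1%), were placed on anti-HA fluorescence to track expression and on streptavidin fluorescence to track reagent binding. A clone's polyreactivity label is taken from the gate it came out of. The reagent was 10% biotinylated, detergent-solubilized Sf9 membrane, applied for 1 hour at 4 °C to galactose-induced yeast display cells.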

Question: Which “polyreactivity (PSR sort gate)” value does the source give for “QVQLVESVGGLVQAGGSLRLSCAASGRTFYTYAMGWYRQAPGKERELVAAISSSGSTYYADSVKGRFTISRDNAKKTVYLQMNSLKPEDTAVYYCNARTSRYRRGGDSWGQGTQVTVSS” here?
Answer: high polyreactivity

Question: Which “polyreactivity (PSR sort gate)” value does the source give for “QVQLVESVGGLVQAGGSLRLSCAASGRTIVSNAMGWYRQAPGKERELVAAITRGSRTYYADSVKGRFTISRDNAKNTVYLQMNSLKPEDTAVYYCNARHVRYPFTGNYWGQGTQVTVSS” here?
Answer: high polyreactivity

Question: For “QVQLVESVGGLVQAGGSLRLSCAASGRTVGGNAMGWYRQAPGKERELVAAINRSGGTTYYADSVKGRFTISRDNAKNTVYLQMNSLKPEDTAVYYCAARRTVSATRMGYWGQGTQVTVSS”, which “polyreactivity (PSR sort gate)” value is on record?
Answer: high polyreactivity

Question: With “QVQLVESVGGLVQAGGSLRLSCAASGSIFGPNAMGWYRQAPGKERELVAAISLSTGSTYYADSVKGRFTISRDTAKNTVYLQMNSLKPEDTAVYYCAAYYVTPIYYYWGQGTQVTVSS” as the sequence, how does the “polyreactivity (PSR sort gate)” value read?
Answer: low polyreactivity

Question: With “QVQLVESVGGLVQAGGSLRLSCAASGSIFGTYAMGWYRQAPGKERELVAAISWRGGTYYADSVKGRFTISRDNAKNTVYLQMNSLKPEDTAVYYCNKLYTHRALGRLDYWGQGTQVTVSS” as the sequence, how does the “polyreactivity (PSR sort gate)” value read?
Answer: high polyreactivity

Question: For “QVQLVESVGGLVQAGGSLRLSCAASGSIFGVYVMGWYRQAPGKERELVAAITRGASTNYADSVKGRFTISRDNAKNTVYLQMKSLKPEDTAVYYCAAEWWEEYGYYDDNDYWGQGTQVTVSS”, which “polyreactivity (PSR sort gate)” value is on record?
Answer: low polyreactivity

Question: With “QVQLVESVGGLVQAGGSLRLSCAASGSIFITYAMGWYRQAPGKVRELVAAIRDSGDRTYYADSVKGRFTISRDNAKNTVYLQMNSLKPEDTAVYYCNARWQEPLKYDYWGQGTQVTVSS” as the sequence, how does the “polyreactivity (PSR sort gate)” value read?
Answer: low polyreactivity

Question: With “QVQLVESVGGLVQAGGSLRLSCAASGSIFTHNTMGWYRQAPGKERELVASIDSGASTNYADSVKGRFTISRDNAKNTVYLQMNSLKPEDTAVYYCAARDYDWGYPYYYWGQGTQVTVSS” as the sequence, how does the “polyreactivity (PSR sort gate)” value read?
Answer: low polyreactivity

Question: For “QVQLVESVGGLVQAGGSLRLSCAASGSIFVNNAMGWYRQAPGKERELVAAISRSGGSTYYADSVKGRFTISRDNAKNTVYLQMNSLKPEDTAVYYCATVHRSSTPPEFNYWGQGTQVTVSS”, which “polyreactivity (PSR sort gate)” value is on record?
Answer: high polyreactivity

Question: With “QVQLVESVGGLVQAGGSLRLSCAASGSIFVTNALGWYRQAPGKERELVAAISSGGNTNYADSVKGRFTISRDNAKNTVYLQMNSLKPEDTAVYDCAKDPDKVDYVDMDYWGQGTQVTVSS” as the sequence, how does the “polyreactivity (PSR sort gate)” value read?
Answer: low polyreactivity

Question: For “QVQLVESVGGLVQAGGSLRLSCAASGSIFYDNGMGWYRQAPGNERELVAAISRGGTTNYADSVKGRFTISRDKAKNTVYLQMNSLKPEDTAVYYCNAETRFTYWGSWYDYWGQGTQVTVSS”, which “polyreactivity (PSR sort gate)” value is on record?
Answer: low polyreactivity

Question: Which “polyreactivity (PSR sort gate)” value does the source give for “QVQLVESVGGLVQAGGSLRLSCAASGSIFYPYAMGWYRQAPGKERELVAAIRNGRSTYYADSVKGRFTISRDNAKNTVYLKMNSLKPEDTAVYYCAASVRRRHPFEYWGQGTQVTVSS” here?
Answer: high polyreactivity

Question: With “QVQLVESVGGLVQAGGSLRLSCAASGSILAVNAMGWYRQAPGKERELVAAISSRGGSTSYADSVKGRYTISRDNAKNTVYLQMNSLKPEDTAVYYCAVRAVRRLRTSVPVRFYYWGQGTQVTVSS” as the sequence, how does the “polyreactivity (PSR sort gate)” value read?
Answer: high polyreactivity

Question: With “QVQLVESVGGLVQAGGSLRLSCAASGSILVSYAMGWSRQAPGKERELGPAITQGGGSTYYADCVKGRFTFSRDNAKNTVYLQMNSLKPEDTAVYYCSVDGLSDDRYSAGGDYWGQGTQVTVSS” as the sequence, how does the “polyreactivity (PSR sort gate)” value read?
Answer: low polyreactivity

Question: For “QVQLVESVGGLVQAGGSLRLSCAASGSNFPPYAMGWYRQAPGKERELVAAITSTDSTDYADSVKGRFTISRDNAKNTVYLQMNSLKPEDTAVYYCAAATGTYGRGGYYWGQGTQVTVSS”, which “polyreactivity (PSR sort gate)” value is on record?
Answer: high polyreactivity

Question: For “QVQLVESVGGLVQAGGSLRLSCAASGSTFDKYAMGWYRQAPGKERELVATISQSGASTYYADSVKGRFTISRDNAKNTVYLQMNSLKPEDTAVYYCAARSSTRVWYWGRYYYWGQGTQVTVSS”, which “polyreactivity (PSR sort gate)” value is on record?
Answer: high polyreactivity

Question: For “QVQLVESVGGLVQAGGSLRLSCAASGSTFGRNAMGWYRQAPGKERELVAAISSRGGGTYYADSVKGRFTISRDNAKNTVYLQMNSLKPEDTAVYYCAATYGYRRRNHYNYWGQGTQVTVSS”, which “polyreactivity (PSR sort gate)” value is on record?
Answer: high polyreactivity

Question: With “QVQLVESVGGLVQAGGSLRLSCAASGSTFQSNGMGWYRQAPGKERELVAAITSTDASTSYADSVKGRFTISRDNAKITVYLQMNSLKPEDTAVYYCAADFPVASGAELDYWGQGTQVTVSS” as the sequence, how does the “polyreactivity (PSR sort gate)” value read?
Answer: low polyreactivity

Question: Which “polyreactivity (PSR sort gate)” value does the source give for “QVQLVESVGGLVQAGGSLRLSCAASGSTFYANAMGWYRQAPGKERELVAAITWGDASTYYADSVKGRFTISRDNAKNTVYLQMNSLKPEDTAVYYCAVDESYGSSSDMDYWGQGTQVTVSS” here?
Answer: low polyreactivity

Question: With “QVQLVESVGGLVQAGGSLRLSCAASGSTSRIYAIGRYRKAPGKEREWVAAISRSGGSTYYADSVKGRFTISRDNAKNTVYLQMNSLKPEDTAVYYCAKDASKETSGGDYWGQGTQVTVSS” as the sequence, how does the “polyreactivity (PSR sort gate)” value read?
Answer: high polyreactivity

Question: Which “polyreactivity (PSR sort gate)” value does the source give for “QVQLVESVGGLVQAGGSLRLSCAASGYIFYGYAMGWYRQAPGKEREFVAAITVRGGSTYYADSVKGRFTISRDNAKNTVYLQMNSEKPEDTAVYYCAAAPQFTFGVGYWGQGTQVTVSS” here?
Answer: low polyreactivity

Question: With “QVQLVESVGGLVQAGGSLRLSCAASVFNLKSNAMGWYRQATGKERELVAAISSSGGSTYYADSVKGRFTISRDNAKNTVYLQMNSLKPEDTAVYYCNVAQYLRARRPVDYWGHGTQVTVSS” as the sequence, how does the “polyreactivity (PSR sort gate)” value read?
Answer: high polyreactivity

Question: With “QVQLVESVGGLVQAGGSLRLSCAATGSTFGVNDMGWYRQSPGKERQFVADITTSGGSTYYADSVKWRFTISRDIAKNTVYLQMNSLKPEDTAVYYCAADLWPFEHDDYWGQGTQVTVSS” as the sequence, how does the “polyreactivity (PSR sort gate)” value read?
Answer: low polyreactivity

Question: For “QVQLVESVGGLVQAGGSLRLSCAGSGFTFLYYAMGWYRQAPGKERELVDTISKSGGSTYYADSVKGRFTISRDNAKNTDYLQMNSLKPEDTAVDYFAAVGPYRWYDYWGQGTQVTVSS”, which “polyreactivity (PSR sort gate)” value is on record?
Answer: high polyreactivity

Question: With “QVQLVESVGGLVQAGGSLRLSCPTSGRIFTYYAMGWYRQAPGKERELVAAINSRGGSTYYADSVKGRFTISRDNAKNTVYLQMNSLKPEDSAVYYCAAVGLYSRYAYWGQGTQVSVSS” as the sequence, how does the “polyreactivity (PSR sort gate)” value read?
Answer: high polyreactivity

Question: For “QVQLVESVGGLVQAGGSLRLSSAASGFTFTHYAMGWYRQAPGKERELVAAISTSGGSTYYADSVKGRFTISRDNAKNTVYLQMNSLKPEDTAVYYCAARRDGWVQWGYYYWGQGTQVTVSS”, which “polyreactivity (PSR sort gate)” value is on record?
Answer: low polyreactivity

Question: With “QVQLVESVGGLVQAGGSLRLSSAASGYIFFGNAMGWYRQAPGKERELVAAIRWRGTSTYYADSVKGRFTISRDNAKNTVYLQMNSLKPEDTAVYYCAKDGRVHSPYDYWGQGTQVTVSS” as the sequence, how does the “polyreactivity (PSR sort gate)” value read?
Answer: low polyreactivity

Question: With “QVQLVESVGGLVQAGGSLRLTCAASGRIFEINTMGWYRQAPGKERELVAAISRGGGSTYYADSVKGRFTISRDNAKNTVYLQMNSLKPEDTAVYYCAAASYYVEGDYWGQGTQVTVSS” as the sequence, how does the “polyreactivity (PSR sort gate)” value read?
Answer: low polyreactivity

Question: For “QVQLVESVGGLVQAGGTRRLSCDASGRTFGLNVMGWYRHAPGKERELVASIRNIGGSTYYADSVKWRFTISCDNAKNTVYLQMNSLKPEDTAVYYCAADYNLVVQGYDYWGQGTQVTVSS”, which “polyreactivity (PSR sort gate)” value is on record?
Answer: high polyreactivity

Question: With “QVQLVESVGGLVQAGRILRISCAASGFTLYYYDKGWYRQAPGKQRELVAGISSGDSTYYADSLKGRFTISRDNAKNTVYLHMNSLKPEDTAVYYCATGDSLYYRYWSNNYWGQGTQVTVSS” as the sequence, how does the “polyreactivity (PSR sort gate)” value read?
Answer: high polyreactivity

Question: For “QVQLVESVGGLVQAGRSLRLSCAASGSIFLRNAMGWYRQPPGKERELVASITWNGASTSYADSVKGRFTISRDNAKNTVYLQMNSLKPEDTAVYYCAAVTVQDSNLKYGYWGQGTQVTVSS”, which “polyreactivity (PSR sort gate)” value is on record?
Answer: low polyreactivity

Question: Which “polyreactivity (PSR sort gate)” value does the source give for “QVQLVESVGGLVQAGVSLRLSSAASGSTLKQYAMGWFRQSPGKERELVGAITRSGSSTYYADSVKGRFTISRDNAKNTVYLPMNRLKREDTAVYYCDVGCWKGDYYWGLGTQVTVSS” here?
Answer: high polyreactivity

Question: Which “polyreactivity (PSR sort gate)” value does the source give for “QVQLVESVGGLVQEGGTLRLSCAASGSTFEVYTMGWYRQAPGKERELVAAITKNGGTTYYADSVKGRFTISRDNAKNTVYLQMNSLKPEDTAVYYCAVYYYSGYYYWDYYWGQGTQVTVSS” here?
Answer: low polyreactivity

Question: For “QVQLVESVGVLVQEGGSLRLSSAASGGSLPRYAMGWYRQAPGKEMELVAVITRGGSTYYADSVKGRFTISRDNAKNTVYLQMIRLIPEDTAVYYFAKYRYQTGIFYYWGQGTQVTVSS”, which “polyreactivity (PSR sort gate)” value is on record?
Answer: high polyreactivity

Question: For “QVQLVESVLGLVQAGGSLRFSCAASGSTIVRYAMVWYRPAPGKERELVAAISSSGATTYYADSVKGRFTISRDNAKNTVYLQMNSLKPEYTAVYYCDKYCRATRGLDNYWGQGTQVTVSS”, which “polyreactivity (PSR sort gate)” value is on record?
Answer: high polyreactivity

Question: Which “polyreactivity (PSR sort gate)” value does the source give for “QVQLVESVRGLVQAGGSLPLSCAASGIIISSYAIGWYRQAPGKESEMVADIRSGGSTNYADSVKGRFTISRDNAKNNVYLQMNSLKPEDTAVYYCIADTFQWWDIADVYVIVKYGYWGQGTQVTVSS” here?
Answer: low polyreactivity

Question: For “QVQLVESVRGLVQAGGSLRLSCDASAFIFRSYAMGWNRQAPGKERELVAVISRRGVNTHYADSVKGRFSISRDNAKNTVYLQINSLKPEDTAVYYCAAELSYRGYPYDYWGQGTQVTVSS”, which “polyreactivity (PSR sort gate)” value is on record?
Answer: high polyreactivity

Question: With “QVQLVESVVGLVQEGGSLRFSCAASASTLDSNPIGWYRQAPGKEREVVAAITSGGSTYYADSVKGRFTISRDNAKNTVYLQMNSLKPEDSAVYYCATAWYLGRYRSLGYWGQGTQVTVSS” as the sequence, how does the “polyreactivity (PSR sort gate)” value read?
Answer: high polyreactivity

Question: Which “polyreactivity (PSR sort gate)” value does the source give for “QVQLVESVVGLVQPRGSLRLSSASSGRTFRQYAMGRYRQAPGKERDLVAAIRTNGGRTYYADSVKGRFTISRDNAKNTVYLQMNSQKPEDTAVYYCAVYAFVQGVLFDYWGQGTQVTVSS” here?
Answer: high polyreactivity

Question: Which “polyreactivity (PSR sort gate)” value does the source give for “QVQLVESVVVLVQAGGSLRLSCAASGFTIPFYAMGWYRQARGKERDLVAAISQSGVRTYYADSVKGRFTISRDNAKYTVYLQMKSLKPEDTAVYFCNVAYRGALDIHSYWYPSEYWGQGTQVTVSS” here?
Answer: high polyreactivity

Question: For “QVQLVESWGALVQAGGSLRLSCAASGSTFGSNAMGWYRQAPGKERELVAAITYSGGRTYYADSVKGRFTISRDNAKNTVYLQMNSLTPEDTAVYYCAATFGFFYYQYDYWGQGTQVTVSS”, which “polyreactivity (PSR sort gate)” value is on record?
Answer: low polyreactivity

Question: Which “polyreactivity (PSR sort gate)” value does the source give for “QVQLVESWGALVQAGGSLRLSCAASGSTFGYYAMGWYRQAPGKDRELVAAITRSGGSTSYADSVTGRFTISRDNAKNTVYLQMNSLKPEATAVYYCAARFYRPYYARQGYNYWGQGTKVTVSS” here?
Answer: high polyreactivity

Question: Which “polyreactivity (PSR sort gate)” value does the source give for “QVQLVESWGGLFQAGGRLRLSSAASGFTFPRYAMGWYRHSPGKERELVAAISRGGSTNYADSVKGRFTISRDNAMNTVYLQMNSLKPEVTAVYYCNVRLEYRYYRGDYWGQGTQVTVSS” here?
Answer: high polyreactivity
